Earlier results in article PMC5620257.
Where two headings read alike, the source gives them in different places.

How the values were obtained:
PD1 (Homo sapiens) [1] = target: PD1 (Homo sapiens) (UniProt Q15116)
PD1 (Homo sapiens) [2] = target: PD1 (Homo sapiens) (UniProt Q15116); remark: listed apart in the source

Sequence of UniProt Q15116 (Q15116 25-170): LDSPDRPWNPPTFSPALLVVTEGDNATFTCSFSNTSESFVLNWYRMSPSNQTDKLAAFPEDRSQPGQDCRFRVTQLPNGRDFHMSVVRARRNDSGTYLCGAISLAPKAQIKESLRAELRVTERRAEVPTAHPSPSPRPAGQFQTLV

Kd (PD1 (Homo sapiens) [1]): 770 nM
Kd (PD1 (Homo sapiens) [2]): 26.6 µM
Substance: PD-L1 (from UniProt Q9NZQ7)
